Measurements taken from patent US10858688B2, “Observation method using binding and dissociation probe” (KYOTO UNIVERSITY, priority 2015, dated 2020).

Assays:
[1] = test system: intermediate filament; test: Washability test of probe candidates; type: cell-based, Xenopus laevis; parameters: key: “washability” is positive (P) when above criterion (2) is met; settings: speckles equal to or less than about 10% after switching imaging solution 10 to 20 times
Experimental: (2) It is possible to wash and remove a probe after SiMS imaging (imaging step);
The […] of the above (2), whose result is shown in table 1, was performed in the following procedures. […] This switching of imaging solution was conducted slowly so that the observation position would not shift. Next, an imaging solution not containing a probe and not containing the active oxygen-scavenging mix was switched 10 to 20 times. After the switching, for confirmation, for an XCT cell sample in the observation chamber, speckle images of 10 frames were picked up under a similar condition to that of the localization test described in the previous paragraph, and when the number of speckles confirmed in the speckle images (i.e., the number of probes that had bound) became sufficiently smaller (equal to or less than about 10%) than the number of the speckles in the speckle images before the washing operation, washing was determined to be possible and the result was treated as P (positive).

[2] = test system: intermediate filament; test: Localization test of probe candidates (integrated SiMS images); type: cell-based, Xenopus laevis; parameters: key: “localization” is positive (P) when above criterion (1) is met; settings: fixed, permeabilized XTC cell; lysate supernatant of EGFP fused probe; TIRF, 10000 frames
Experimental: HEK (Human embryonic kidney)-293F cells were transfected with a plasmid encoding a probe candidate protein tagged with FLAG-EGFP or 3×FLAG-EGFP. […] Centrifugal separation was performed on the lysate and the supernatant liquid was collected. In order to perform screening for a probe for IRIS, the binding capacity of a probe candidate in the supernatant liquid with respect to the structure of an XCT cell that was fixed with paraformaldehyde (PFA) and that received a permeabilization process was tested. The appearance and disappearance of single molecule speckles (Single-molecule speckles, SiMS) in the structure was tested. Screening was performed for a probe for IRIS in accordance with the following criteria:
(1) It is possible to confirm a distribution of target substances in the structure in an image resulting from adding SiMS images;
The localization test of the above (1), whose result is shown in table 1, was performed in the following procedures. First, the supernatant liquid of lysate of a cell that expressed each probe candidate was brought into contact with an XCT cell that was fixed on a coverglass and that received a permeabilization process. […] The obtained speckle images of 10000 frames were integrated so as to confirm whether or not a distribution of target substances in the cell (microtubule, intermediate filament, focal adhesion or actin filament) was able to be confirmed. When a distribution of a target substances was able to be confirmed, the result of the localization test was treated as P (positive).

[3] = test system: intermediate filament; test: Measurement of binding half-life of probe-target complex; parameters: species or system Xenopus laevis; settings: fixed XTC cell, single exponential fit
Source text: A probe and a target substance have the following binding characteristics. […] The above half-life herein is preferably a half-life of a probe-target complex formed by binding between a probe and a target substance in a case when a medium containing a probe and a sample containing a target substance that is to be observed are brought into contact under a condition for performing an imaging step. […] Measurement procedures for the half-life are as below. […] Ndissociation is a cumulative relative frequency of a probe that dissociated. A cumulative relative frequency is a ratio of the speckles that disappeared within a given period of time to the total number of measured speckles (i.e. probes) (i.e. probes that dissociated within a given period of time), and represents the total number as 1. Then, by fitting the above complementary cumulative relative frequency function with an exponent function, that half-life is calculated.
The measurement of binding half-life, whose result is shown in table 1, was performed in the following procedures. Speckle images of 10000 frames picked up in the localization test were used in order to measure a period of time between the appearance of a probe that has bound to a target in a speckle image and disappearance through dissociation in a semi-manual mode by using Speckle TrackerJ, an ImageJ plug-in. In case of for example picking up of images with an exposure time of 50 ms and at a frame rate of 20 Hz, it is assumed that a period of time between the appearance and disappearance of a speckle that is observed in only one of consecutive frames is 50 ms and a period of time between the appearance and disappearance of a speckle observed in only two consecutive frames is 100 ms. […] Ndissociation is a cumulative relative frequency of probes that dissociated. Then, by fitting the complementary cumulative relative frequency function with an exponent function, the half-life was calculated. However, the binding half-life with respect to an actin filament of Atto488-Lifeact was measured by using a method that is described in detail in the section for FIG. 9 in the Brief Description of the Drawings.

[4] = test system: intermediate filament; test: IRIS image test (reconstruction image); type: cell-based, Xenopus laevis; parameters: key: “IRIS image” is positive (P) when above criterion (3) is met; settings: reconstruction from 10000 frames with DAOSTORM
Experimental: […] It is possible to reconstruct an image of a target substance by integrating the central positions of the respective speckles. The IRIS image test of the above (3) whose result is described in table 1 was performed in the following procedures. By using all the speckle images of 10000 frames picked up in the localization test, the central point of a probe that has bound to a target in each frame of the speckle images was determined with nanometer accuracy by using DAOSTORM. By adding a large number of pieces of central point information in the fluorescence images of 10000 frames, a reconstruction image (observation image) was generated. Whether or not a distribution of a target molecule was able to be observed in that reconstruction image was determined, and when a distribution of a target molecule was observed, the result was treated as P (positive).

HALF-LIFE [3] [s] | Molecule | WASHABILITY [1] | LOCALIZATION [2] | IRIS IMAGE [4]
7.7 | Plectin-1 4066-4364: EGFP fused (N terminus) human Plectin-1 fragment, residues 4066-4364 of sequence number 8 (protein, listed as Homo sapiens, N-terminal EGFP fusion) LEGTSCIAGVFVDATKERLSVYQAMKKGIIRPGTAFELLEAQAATGYVIDPIKGLKLTVEEAVRMGIVGPEFKDKLLSAERAVTGYKDPYSGKLISLFQAMKKGLILKDHGIRLLEAQIATGGIIDPEESHRLPVEVAYKRGLFDEEMNEILTDPSDDTKGFFDPNTEENLTYLQLMERCITDPQTGLCLLPLKEKKRERKTSSKSSVRKRRVVIVDPETGKEMSVYEAYRKGLIDHQTYLELSEQECEWEEITISSSDGVVKSMIIDRRSGRQYDIDDAIAKNLIDRSALDQYRAGTL | P | P | –
0.059 | Plectin-1 3777-4364: EGFP fused (N terminus) human Plectin-1 fragment, residues 3777-4364 of sequence number 8 (protein, UniProt Q15149 3777-4364, looked up, fragment, N-terminal EGFP fusion) YDYVRRRLTAEDLFEARIISLETYNLLREGTRSLREALEAESAWCYLYGTGSVAGVYLPGSRQTLSIYQALKKGLLSAEVARLLLEAQAATGFLLDPVKGERLTVDEAVRKGLVGPELHDRLLSAERAVTGYRDPYTEQTISLFQAMKKELIPTEEALRLLDAQLATGGIVDPRLGFHLPLEVAYQRGYLNKDTHDQLSEPSEVRSYVDPSTDERLSYTQLLRRCRRDDGTGQLLLPLSDARKLTFRGLRKQITMEELVRSQVMDEATALQLREGLTSIEEVTKNLQKFLEGTSCIAGVFVDATKERLSVYQAMKKGIIRPGTAFELLEAQAATGYVIDPIKGLKLTVEEAVRMGIVGPEFKDKLLSAERAVTGYKDPYSGKLISLFQAMKKGLILKDHGIRLLEAQIATGGIIDPEESHRLPVEVAYKRGLFDEEMNEILTDPSDDTKGFFDPNTEENLTYLQLMERCITDPQTGLCLLPLKEKKRERKTSSKSSVRKRRVVIVDPETGKEMSVYEAYRKGLIDHQTYLELSEQECEWEEITISSSDGVVKSMIIDRRSGRQYDIDDAIAKNLIDRSALDQYRAGTL | P | P | P
0.457 | Plectin-1 3777-4684: EGFP fused (N terminus) human Plectin-1 fragment, residues 3777-4684 of sequence number 8 (protein, listed as Homo sapiens, N-terminal EGFP fusion) YDYVRRRLTAEDLFEARIISLETYNLLREGTRSLREALEAESAWCYLYGTGSVAGVYLPGSRQTLSIYQALKKGLLSAEVARLLLEAQAATGFLLDPVKGERLTVDEAVRKGLVGPELHDRLLSAERAVTGYRDPYTEQTISLFQAMKKELIPTEEALRLLDAQLATGGIVDPRLGFHLPLEVAYQRGYLNKDTHDQLSEPSEVRSYVDPSTDERLSYTQLLRRCRRDDGTGQLLLPLSDARKLTFRGLRKQITMEELVRSQVMDEATALQLREGLTSIEEVTKNLQKFLEGTSCIAGVFVDATKERLSVYQAMKKGIIRPGTAFELLEAQAATGYVIDPIKGLKLTVEEAVRMGIVGPEFKDKLLSAERAVTGYKDPYSGKLISLFQAMKKGLILKDHGIRLLEAQIATGGIIDPEESHRLPVEVAYKRGLFDEEMNEILTDPSDDTKGFFDPNTEENLTYLQLMERCITDPQTGLCLLPLKEKKRERKTSSKSSVRKRRVVIVDPETGKEMSVYEAYRKGLIDHQTYLELSEQECEWEEITISSSDGVVKSMIIDRRSGRQYDIDDAIAKNLIDRSALDQYRAGTLSITEFADMLSGNAGGFRSRSSSVGSSSSYPISPAVSRTQLASWSDPTEETGPVAGILDTETLEKVSITEAMHRNLVDNITGQRLLEAQACTGGIIDPSTGERFPVTDAVNKGLVDKIMVDRINLAQKAFCGFEDPRTKTKMSAAQALKKGWLYYEAGQRFLEVQYLTGGLIEPDTPGRVPLDEALQRGTVDARTAQKLRDVGAYSKYLTCPKTKLKISYKDALDRSMVEEGTGLRLLEAAAQSTKGYYSPYSVSGSGSTAGSRTGSRTGSRAGSRRGSFDATGSGFSMTFSSSSYSSSGYGRRYASGSSASLGGPESAVA | P | P | P
0.103 | Plectin-1 4022-4364: EGFP fused (N terminus) human Plectin-1 fragment, residues 4022-4364 of sequence number 8 (protein, listed as Homo sapiens, N-terminal EGFP fusion) FRGLRKQITMEELVRSQVMDEATALQLREGLTSIEEVTKNLQKFLEGTSCIAGVFVDATKERLSVYQAMKKGIIRPGTAFELLEAQAATGYVIDPIKGLKLTVEEAVRMGIVGPEFKDKLLSAERAVTGYKDPYSGKLISLFQAMKKGLILKDHGIRLLEAQIATGGIIDPEESHRLPVEVAYKRGLFDEEMNEILTDPSDDTKGFFDPNTEENLTYLQLMERCITDPQTGLCLLPLKEKKRERKTSSKSSVRKRRVVIVDPETGKEMSVYEAYRKGLIDHQTYLELSEQECEWEEITISSSDGVVKSMIIDRRSGRQYDIDDAIAKNLIDRSALDQYRAGTL | P | P | P
0.052 | Plectin-1 3777-4313: EGFP fused (N terminus) human Plectin-1 fragment, residues 3777-4313 of sequence number 8 (protein, UniProt Q15149 3777-4313, looked up, fragment, N-terminal EGFP fusion) YDYVRRRLTAEDLFEARIISLETYNLLREGTRSLREALEAESAWCYLYGTGSVAGVYLPGSRQTLSIYQALKKGLLSAEVARLLLEAQAATGFLLDPVKGERLTVDEAVRKGLVGPELHDRLLSAERAVTGYRDPYTEQTISLFQAMKKELIPTEEALRLLDAQLATGGIVDPRLGFHLPLEVAYQRGYLNKDTHDQLSEPSEVRSYVDPSTDERLSYTQLLRRCRRDDGTGQLLLPLSDARKLTFRGLRKQITMEELVRSQVMDEATALQLREGLTSIEEVTKNLQKFLEGTSCIAGVFVDATKERLSVYQAMKKGIIRPGTAFELLEAQAATGYVIDPIKGLKLTVEEAVRMGIVGPEFKDKLLSAERAVTGYKDPYSGKLISLFQAMKKGLILKDHGIRLLEAQIATGGIIDPEESHRLPVEVAYKRGLFDEEMNEILTDPSDDTKGFFDPNTEENLTYLQLMERCITDPQTGLCLLPLKEKKRERKTSSKSSVRKRRVVIVDPETGKEMSVYEAYRKGLIDHQTYLELSEQEC | P | P | P
